Results taken from patent US20210246166A1 (Bayer, published 2021).
Numbered stars: 1 amine (or outer) side, 2 acyl side, 3 side chain; on linkers, the order of the positions; unused ones are H or OH. Bridge positions count the residues as written; N and C are the ends. Square brackets hold non-standard residues; d marks the D form. Ends that are not written are not given here. Phe(2,3-F2) = (2S)-3-(2,3-difluorophenyl)-2-aminopropanoic acid, O=C([C@H](Cc1cccc(F)c1F)N[*:1])[*:2]; X3 = (1R,3S)‑3‑(Amino)cyclopentanecarboxylic acid, O=C([C@@H]1CC[C@H](N[*:1])C1)[*:2]; X8 = (R)‑4‑Amino‑6‑methylheptanoic acid, CC(C)C[C@@H](CCC(=O)[*:2])N[*:1]; X6 = (S)‑(1-Piperidin-3-yl)‑acetic acid, O=C(C[C@@H]1CCCN([*:1])C1)[*:2]; His(τ-Bzl) = N[C@@H](Cc1cn(Cc2ccccc2)cn1)C(=O)O; Oic = O=C(O)[C@@H]1C[C@@H]2CCCC[C@@H]2N1; tBuAla = CC(C)(C)C[C@H](N)C(=O)O; (3-Me)H = L-3-methylhistidine; Pen = CC(C)(S)[C@H](N)C(=O)O; NMeA = CN[C@@H](C)C(=O)O; Nva = CCC[C@H](N)C(=O)O; Sar = CNCC(=O)O

T1: recombinant rat MASP1 active protease (amino acids 302-704, C-terminal His Tag) (rat, UniProt Q8CHN8 302-704)
T1 sequence: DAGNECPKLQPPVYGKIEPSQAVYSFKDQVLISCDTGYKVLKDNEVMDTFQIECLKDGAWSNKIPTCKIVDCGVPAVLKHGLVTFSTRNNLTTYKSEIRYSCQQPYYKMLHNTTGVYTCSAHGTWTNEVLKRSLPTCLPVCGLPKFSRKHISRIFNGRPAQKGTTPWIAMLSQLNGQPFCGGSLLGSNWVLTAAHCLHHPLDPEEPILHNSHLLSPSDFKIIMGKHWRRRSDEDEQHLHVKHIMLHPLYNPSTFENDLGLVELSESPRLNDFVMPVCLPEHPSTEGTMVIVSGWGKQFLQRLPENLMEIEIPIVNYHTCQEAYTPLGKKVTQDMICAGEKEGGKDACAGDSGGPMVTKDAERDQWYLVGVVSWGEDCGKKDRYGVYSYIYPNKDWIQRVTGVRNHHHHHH

B1: Example 441: ((N-Me)G)-IC+SRS-((2S)-3-(2,3-difluorophenyl)-2-aminopropanoic acid)-P-(Oic)-I-(Pen)+IP-NH2 (peptide)
peptide: [Sar]ICSRS[Phe(2,3-F2)]P[Oic]I[Pen]IP-NH2
modifications: disulfide 3-11; N-terminus assumed
SMILES: CC[C@H](C)[C@H](NC(=O)CNC)C(=O)N[C@H]1CSSC(C)(C)[C@@H](C(=O)N[C@H](C(=O)N2CCC[C@H]2C(N)=O)[C@@H](C)CC)NC(=O)[C@H]([C@@H](C)CC)NC(=O)[C@@H]2C[C@@H]3CCCC[C@@H]3N2C(=O)[C@@H]2CCCN2C(=O)[C@H](Cc2cccc(F)c2F)NC(=O)[C@H](CO)NC(=O)[C@H](CCCNC(=N)N)NC(=O)[C@H](CO)NC1=O
B2: Example 447: ((N-Me)G)-IC+SRS-((tBu)A)-PPI-(Pen)+IP-((1-Bn)H)-OH (peptide)
peptide: [Sar]ICSRS[tBuAla]PPI[Pen]IP[His(τ-Bzl)]-OH
modifications: disulfide 3-11; N-terminus assumed
SMILES: CC[C@H](C)[C@H](NC(=O)CNC)C(=O)N[C@H]1CSSC(C)(C)[C@@H](C(=O)N[C@H](C(=O)N2CCC[C@H]2C(=O)N[C@@H](Cc2cn(Cc3ccccc3)cn2)C(=O)O)[C@@H](C)CC)NC(=O)[C@H]([C@@H](C)CC)NC(=O)[C@@H]2CCCN2C(=O)[C@@H]2CCCN2C(=O)[C@H](CC(C)(C)C)NC(=O)[C@H](CO)NC(=O)[C@H](CCCNC(=N)N)NC(=O)[C@H](CO)NC1=O
B3: Example 448: ((N-Me)G)-IC+RRS-((tBu)A)-PP-(Nva)-(Pen)+IP-NH2 (peptide)
peptide: [Sar]ICRRS[tBuAla]PP[Nva][Pen]IP-NH2
modifications: disulfide 3-11; N-terminus assumed
SMILES: CCC[C@@H]1NC(=O)[C@@H]2CCCN2C(=O)[C@@H]2CCCN2C(=O)[C@H](CC(C)(C)C)NC(=O)[C@H](CO)NC(=O)[C@H](CCCNC(=N)N)NC(=O)[C@H](CCCNC(=N)N)NC(=O)[C@@H](NC(=O)[C@@H](NC(=O)CNC)[C@@H](C)CC)CSSC(C)(C)[C@@H](C(=O)N[C@H](C(=O)N2CCC[C@H]2C(N)=O)[C@@H](C)CC)NC1=O
B4: Example 449: ((N-Me)G)-IC+SRSLP-(Oic)-I-(Pen)+IP-((1R,3S)-3-(Amino)cyclopentanecarboxylic acid)-OH (peptide)
peptide: [Sar]ICSRSLP[Oic]I[Pen]IP[X3]-OH
modifications: disulfide 3-11; N-terminus assumed
SMILES: CC[C@H](C)[C@H](NC(=O)CNC)C(=O)N[C@H]1CSSC(C)(C)[C@@H](C(=O)N[C@H](C(=O)N2CCC[C@H]2C(=O)N[C@H]2CC[C@@H](C(=O)O)C2)[C@@H](C)CC)NC(=O)[C@H]([C@@H](C)CC)NC(=O)[C@@H]2C[C@@H]3CCCC[C@@H]3N2C(=O)[C@@H]2CCCN2C(=O)[C@H](CC(C)C)NC(=O)[C@H](CO)NC(=O)[C@H](CCCNC(=N)N)NC(=O)[C@H](CO)NC1=O
B5: Example 450: ((N-Me)G)-IC+SRSLP-(Oic)-I-(Pen)+IP-((R)-4-Amino-6-methylheptanoic acid)-OH (peptide)
peptide: [Sar]ICSRSLP[Oic]I[Pen]IP[X8]-OH
modifications: disulfide 3-11; N-terminus assumed
SMILES: CC[C@H](C)[C@H](NC(=O)CNC)C(=O)N[C@H]1CSSC(C)(C)[C@@H](C(=O)N[C@H](C(=O)N2CCC[C@H]2C(=O)N[C@H](CCC(=O)O)CC(C)C)[C@@H](C)CC)NC(=O)[C@H]([C@@H](C)CC)NC(=O)[C@@H]2C[C@@H]3CCCC[C@@H]3N2C(=O)[C@@H]2CCCN2C(=O)[C@H](CC(C)C)NC(=O)[C@H](CO)NC(=O)[C@H](CCCNC(=N)N)NC(=O)[C@H](CO)NC1=O
B6: Example 451: ((N-Me)G)-IC+SRSLP-(Oic)-I-(Pen)+IP-((S)-(1-Piperidin-3-yl)-acetic acid)-OH (peptide)
peptide: [Sar]ICSRSLP[Oic]I[Pen]IP[X6]-OH
modifications: disulfide 3-11; N-terminus assumed
SMILES: CC[C@H](C)[C@H](NC(=O)CNC)C(=O)N[C@H]1CSSC(C)(C)[C@@H](C(=O)N[C@H](C(=O)N2CCC[C@H]2C(=O)N2CCC[C@@H](CC(=O)O)C2)[C@@H](C)CC)NC(=O)[C@H]([C@@H](C)CC)NC(=O)[C@@H]2C[C@@H]3CCCC[C@@H]3N2C(=O)[C@@H]2CCCN2C(=O)[C@H](CC(C)C)NC(=O)[C@H](CO)NC(=O)[C@H](CCCNC(=N)N)NC(=O)[C@H](CO)NC1=O

Each binder was assayed against T1, recombinant rat MASP1 active protease … (assay: cell-based or functional assay).
B1 was tested, and the “rat MASP1 IC50” value was 410 nM. [NMeA]ICSRS[tBuAla]P[(3R,6R)‑1,1‑Difluoro‑5‑azaspiro(2.4)heptane‑6‑carboxylic acid (enantiomer 1)]I[Pen]IP-NH2 (disulfide 3-11) was tested, and the “rat MASP1 IC50” value was 29 nM. [(3-Me)H]ICSRSLP[Oic]I[Pen]IP-NH2 (disulfide 3-11) [Example 444: ((3-Me)H)-IC+SRSLP-(Oic)-I-(Pen)+IP-NH2] was tested, and the “rat MASP1 IC50” value was 130 nM. [NMeA]ICSRS[tBuAla]P[(3R,6R)‑1,1‑Difluoro‑5‑azaspiro(2.4)heptane‑6‑carboxylic acid (enantiomer 2)]I[Pen]IP-NH2 (disulfide 3-11) was tested, and the “rat MASP1 IC50” value was 150 nM. In the case of B2, the “rat MASP1 IC50” value is reported as 21 nM. With B3 the “rat MASP1 IC50” value was 5000 nM. With B4 the “rat MASP1 IC50” value was 45 nM. With B5 the “rat MASP1 IC50” value was 31 nM. With B6 the “rat MASP1 IC50” value was 46 nM.

What follows are binders tested against recombinant rat MASP2 active protease (amino acids 296-685, C-terminal His Tag) (rat, UniProt Q9JJS8 296-685) (assay: cell-based or functional assay).
Sequence of recombinant rat MASP2 active protease (amino acids 296-685, C-terminal His Tag) (Q9JJS8 other isoform, or with tags, fused parts or gaps limits assumed): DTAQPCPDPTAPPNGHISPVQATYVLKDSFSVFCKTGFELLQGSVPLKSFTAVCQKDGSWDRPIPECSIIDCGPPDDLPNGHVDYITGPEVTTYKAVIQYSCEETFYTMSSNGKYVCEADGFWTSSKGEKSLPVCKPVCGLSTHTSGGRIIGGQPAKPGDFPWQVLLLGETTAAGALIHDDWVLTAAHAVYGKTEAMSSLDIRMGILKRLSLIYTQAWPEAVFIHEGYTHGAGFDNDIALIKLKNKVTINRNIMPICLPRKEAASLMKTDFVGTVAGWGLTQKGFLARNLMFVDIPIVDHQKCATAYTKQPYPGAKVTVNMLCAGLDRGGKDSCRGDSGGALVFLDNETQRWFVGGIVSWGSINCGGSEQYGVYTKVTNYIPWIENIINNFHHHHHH
In the case of B1, the “rat MASP2 IC50” value is reported as 120 nM. In the case of [NMeA]ICSRS[tBuAla]P[(3R,6R)‑1,1‑Difluoro‑5‑azaspiro(2.4)heptane‑6‑carboxylic acid (enantiomer 1)]I[Pen]IP-NH2 (disulfide 3-11), the “rat MASP2 IC50” value is reported as 4.7 nM. With [(3-Me)H]ICSRSLP[Oic]I[Pen]IP-NH2 (disulfide 3-11) [Example 444: ((3-Me)H)-IC+SRSLP-(Oic)-I-(Pen)+IP-NH2] the “rat MASP2 IC50” value was 9.8 nM. [NMeA]ICSRS[tBuAla]P[(3R,6R)‑1,1‑Difluoro‑5‑azaspiro(2.4)heptane‑6‑carboxylic acid (enantiomer 2)]I[Pen]IP-NH2 (disulfide 3-11) was tested, and the “rat MASP2 IC50” value was 94 nM. In the case of B2, the “rat MASP2 IC50” value is reported as 35 nM. For B3, the “rat MASP2 IC50” value was 5000 nM. B4 was tested, and the “rat MASP2 IC50” value was 44.5 nM. In the case of B5, the “rat MASP2 IC50” value is reported as 52 nM. With B6 the “rat MASP2 IC50” value was 46 nM.
